Measurements reported in patent US9623039B2, “Treatment and prevention of pathological conditions using iduna related techniques and compositions” (VALTED, LLC, priority 2010, dated 2017).

Legend:
[1] = system: PAR polymer; experiment: EMSA for PAR binding
Excerpt: PAR binding is specified by a sequence of approximately 20 amino acids containing N-terminal basic amino acids and a C-terminal region containing alternating hydrophobic and basic amino acids (FIG. 24). Iduna contains a predicted PAR polymer binding sequence within amino acids 144-167 of the WWE domain (FIGS. 1 and 24). The PAR-binding domain was defined by comparing to the consensus sequence for PAR-binding and the known PAR binding domain of Histone 3 (FIG. 24). HEK293 cells were transfected with GFP, GFP-Iduna lacking the WWE domain (GFP-IdunaΔWWE), GFP-Iduna lacking the RF domain (GFP-IdunaARF), and full-length GFP-Iduna, followed by immunoprecipitation with a GFP antibody. […] Only GFP-Iduna-ARF and full-length GFP-Iduna can co-immunoprecipiate PAR binding proteins (FIG. 25). The critical amino acids in the PAR binding domain, 156Y and 157R, were mutated to 156A and 157A in full length Iduna (Iduna-YRAA). […] Similar results are obtained with a biotin-tagged PAR polymer followed by detection with an anti-biotin antibody (FIG. 26). […] Histone H3 is a known PAR binding protein and was used as a positive control for the PAR overlay assay. […] An assay based on electrophorectic mobility shift (EMSA) for PAR binding was developed to monitor PAR polymer binding to Iduna. […]

[2] = system: primary neurons; experiment: H2O2-induced cell death in primary neurons; format: cell-based, mouse; conditions: 100 μM H2O2
Description: FIGS. 44 and 45—Iduna protects against peroxide-induced cell death in primary neurons. Primary neuronal cultures were transduced with lentiviruses expressing GFP, GFP-Iduna or GFP-Iduna-YRAA. 4 days following lentiviral transduction, cultures were treated with H2O2 (100 μM or 500 μM) and cell death assessed 24 h later using PI and Hoechst staining.
Cell Death Assessment: Following exposure of neuronal cultures to the various treatments neuronal survival was quantified and presented as percent of cell death. Percent cell death was determined as the ratio of live-to-dead cells compared with the percent cell death in control wells to account for cell death attributable to mechanical stimulation of the cultures. Quantification of neuronal survival was determined by staining treated cultures with 5 μM Hoechst 33342 and 2 μM propidium iodide (PI) (Invitrogen, Carlsbad, Calif.). Culture plates were placed on a mechanized stage of a Zeiss microscope and photomicrographs were collected by a blinded observer. The numbers of total and dead (PI positive) cells were counted by automated computer assisted software (Axiovision 4.6, Zeiss, Germany). The raw counts are presented in an Excel file for generation of percent cell death and statistical analysis. Glial nuclei fluoresce at a lower intensity than neuronal nuclei and were gated out by the software program. […]

B1: Iduna: novel NMDA-induced cell survival protein, PAR-dependent E3 ligase; 359 amino acids (protein)
chain: MEMAGCGEIDHSINMLPTNKKANESCSNTAPSLTVPECAICLQTCVHPVSLPCKHVFCYLCVKGASWLGKRCALCRQEIPEDFLDKPTLLSPEELKAASRGNGEYAWYYEGRNGWWQYDERTSRELEDAFSKGKKNTEMLIAGFLYVADLENMVQYRRNEHGRRRKIKRDIIDIPKKGVAGLRLDCDTNTVNLARESSADGADSGSAQTGASVQLAVPSSTRPLTSVDGQLTSPVTPSPDAGISLEDSFAHLQLSGDSIAERSHRGEGEEDHESPSSGRVPDTSVEETESDASSDSEDAPVVVAQHSLTQQRPLVPNGNQTVADQSDRSGTDRSVAGGGTMSVNVRSRRPDGQCTVIEV
PAR polymer mobility shift [1]: retards the mobility shift of PAR polymer
protection against H2O2 toxicity [2]: protects only against 100 μM H2O2
